From doi:10.1101/2023.09.17.558134 (bioRxiv, 2023)

Legend:
[1] = target: σ70 (purified) (E. coli, UniProt P00579 1-613); assay: cryo-EM structure
[2] = target: RNA polymerase β subunit (in the purified holoenzyme) (E. coli, UniProt P0A8V2 1-1342); assay: cryo-EM structure
RNA polymerase β subunit (in the purified holoenzyme), sequence (P0A8V2 whole entry): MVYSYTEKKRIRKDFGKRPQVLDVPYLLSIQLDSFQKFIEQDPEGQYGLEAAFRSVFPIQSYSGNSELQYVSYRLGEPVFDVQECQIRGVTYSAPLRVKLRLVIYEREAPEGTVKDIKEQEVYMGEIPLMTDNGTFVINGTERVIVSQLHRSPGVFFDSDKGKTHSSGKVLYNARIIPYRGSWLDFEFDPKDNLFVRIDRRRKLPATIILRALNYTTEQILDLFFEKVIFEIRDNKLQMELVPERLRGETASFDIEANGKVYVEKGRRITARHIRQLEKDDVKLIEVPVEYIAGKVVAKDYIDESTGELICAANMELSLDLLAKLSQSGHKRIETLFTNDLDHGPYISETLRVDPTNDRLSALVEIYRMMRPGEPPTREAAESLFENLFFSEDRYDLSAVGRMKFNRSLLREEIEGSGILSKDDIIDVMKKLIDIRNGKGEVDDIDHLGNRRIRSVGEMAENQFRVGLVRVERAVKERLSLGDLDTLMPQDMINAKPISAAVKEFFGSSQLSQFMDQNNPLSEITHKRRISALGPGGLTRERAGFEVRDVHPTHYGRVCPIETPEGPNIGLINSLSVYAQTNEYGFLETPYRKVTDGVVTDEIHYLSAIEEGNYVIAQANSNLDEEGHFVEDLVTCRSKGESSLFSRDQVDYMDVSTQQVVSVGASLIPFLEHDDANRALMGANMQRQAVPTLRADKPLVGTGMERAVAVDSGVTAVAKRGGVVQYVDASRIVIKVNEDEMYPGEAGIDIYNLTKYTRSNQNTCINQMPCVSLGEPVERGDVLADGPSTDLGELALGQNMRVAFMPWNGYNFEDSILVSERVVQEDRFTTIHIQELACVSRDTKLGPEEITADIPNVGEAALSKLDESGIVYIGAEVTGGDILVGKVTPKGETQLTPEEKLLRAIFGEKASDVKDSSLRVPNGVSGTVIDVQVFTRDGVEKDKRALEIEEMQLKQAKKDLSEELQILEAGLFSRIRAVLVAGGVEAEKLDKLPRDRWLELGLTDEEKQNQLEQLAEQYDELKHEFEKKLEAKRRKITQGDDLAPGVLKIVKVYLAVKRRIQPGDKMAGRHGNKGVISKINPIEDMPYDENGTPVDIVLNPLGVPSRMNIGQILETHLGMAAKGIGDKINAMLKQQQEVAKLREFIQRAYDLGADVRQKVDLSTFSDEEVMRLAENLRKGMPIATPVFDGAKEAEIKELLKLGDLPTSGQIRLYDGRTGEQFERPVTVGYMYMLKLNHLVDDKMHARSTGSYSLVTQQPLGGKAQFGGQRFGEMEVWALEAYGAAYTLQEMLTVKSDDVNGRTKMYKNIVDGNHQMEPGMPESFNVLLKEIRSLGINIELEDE

σ70 (purified), sequence (P00579 whole entry): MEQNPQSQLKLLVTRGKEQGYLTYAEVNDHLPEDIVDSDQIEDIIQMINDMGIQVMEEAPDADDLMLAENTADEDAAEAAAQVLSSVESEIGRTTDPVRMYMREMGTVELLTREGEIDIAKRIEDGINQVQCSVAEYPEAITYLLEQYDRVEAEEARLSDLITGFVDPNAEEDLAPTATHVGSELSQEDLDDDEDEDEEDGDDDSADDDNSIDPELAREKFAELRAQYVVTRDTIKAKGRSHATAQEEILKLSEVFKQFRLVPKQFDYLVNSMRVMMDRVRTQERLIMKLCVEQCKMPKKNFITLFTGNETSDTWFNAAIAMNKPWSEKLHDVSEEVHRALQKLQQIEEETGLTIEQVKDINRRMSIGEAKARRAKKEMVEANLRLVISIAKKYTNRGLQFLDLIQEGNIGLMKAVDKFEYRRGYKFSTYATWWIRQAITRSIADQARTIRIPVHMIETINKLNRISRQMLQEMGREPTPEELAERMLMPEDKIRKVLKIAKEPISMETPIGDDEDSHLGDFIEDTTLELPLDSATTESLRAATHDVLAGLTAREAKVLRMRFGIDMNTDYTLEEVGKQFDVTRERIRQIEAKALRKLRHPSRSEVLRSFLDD

B1: CedA (purified recombinant) (natural protein)
chain: MKKPLRQQNRQIISYVPRTEPAPPEHAIKMDSFRDVWMLRGKYVAFVLMGESFLRSPAFTVPESAQRWANQIRQEGEVTE
**Q.** Which results are given for B1?
**A.** binding result [1]: binds; binding result [2]: binds
